Experimental data from US20220098307A1 (WUHAN YZY BIOPHARMA, published 2022).
Where a chain is given by its changes, count along the chain named. Names may count otherwise.

B1: PDL1-M1-G2 (bispecific antibody)
chain: QVQLVESGGGVVQPGRSLRLSCAASGFTFSTYAMNWVRQAPGKGLEWVARIRSKYNNYATYYADSVKDRFTISRDDSKNTLYLQMNSLRAEDTAVYYCARHGNFGNSYVSWFAYWGQGTLVTVSSGGGGSGGGGSGGGGSQTVVTQEPSLTVSPGGTVTLTCRSSTGAVTTSNYANWVQQKPGQAPRGLIGGTNKRAPGVPARFSGSLLGGKAALTLSGVQPEDEAEYYCALWYSNLWVFGGGTKVEIKRGRGSDKTHTCPPCPAPPVAGPSVFLFPPKPKDTLMISRTPEVTCVVVDVSHEDPEVQFNWYVDGVEVHNAKTKPREEQFNSTFRVVSVLTVVHQDWLNGKEYKCKVSNKGLPAPIEKTISKTKGQPREPQVCTLPPSRDELTKNQVSLSCAVKGFYPSDIAVEWESNGQPENNYKTTPPVLDSDGSFFLVSKLTVDKSRWQQGNVFSCSVMHEALHNHYTQKSLSLSPGK
heavy: not shown
light: not shown
notes: structure 1; PD-L1 x CD3; CH2 G2CH2
B2: PDL1-M1-SG2 (bispecific antibody)
chain: B1 chain with C263S
heavy: not shown
light: not shown
notes: structure 1; PD-L1 x CD3; CH2 SG2CH2
B3: PDL1-M1-FES (bispecific antibody)
chain: QVQLVESGGGVVQPGRSLRLSCAASGFTFSTYAMNWVRQAPGKGLEWVARIRSKYNNYATYYADSVKDRFTISRDDSKNTLYLQMNSLRAEDTAVYYCARHGNFGNSYVSWFAYWGQGTLVTVSSGGGGSGGGGSGGGGSQTVVTQEPSLTVSPGGTVTLTCRSSTGAVTTSNYANWVQQKPGQAPRGLIGGTNKRAPGVPARFSGSLLGGKAALTLSGVQPEDEAEYYCALWYSNLWVFGGGTKVEIKRGRGSDKTHTCPPCPAPEFEGGPSVFLFPPKPKDTLMISRTPEVTCVVVDVSHEDPEVKFNWYVDGVEVHNAKTKPREEQYNSTYRVVSVLTVLHQDWLNGKEYKCKVSNKALPASIEKTISKAKGQPREPQVCTLPPSRDELTKNQVSLSCAVKGFYPSDIAVEWESNGQPENNYKTTPPVLDSDGSFFLVSKLTVDKSRWQQGNVFSCSVMHEALHNHYTQKSLSLSPGK
heavy: not shown
light: not shown
notes: structure 1; PD-L1 x CD3; CH2 FES
B4: PDL1-M1-LALA (bispecific antibody)
chain: B3 chain with F268A, E269A, S365P
heavy: not shown
light: not shown
notes: structure 1; PD-L1 x CD3; CH2 LALA
B5: M1IC-WT-1 (bispecific antibody, human IgG1, kappa)
chain: not shown
heavy: not shown
light: DVVMTQTPLSLPVSLGDQASISCRSSQSLVHSNGNTYLRWYLQKPGQSPKVLIYKVSNRFSGVPDRFSGSGSGTDFTLKISRVEAEDLGVYFCSQSTHVPWTFGGGTKLEIKRTVAAPSVFIFPPSDEQLKSGTASVVCLLNNFYPREAKVQWKVDNALQSGNSQESVTEQDSKDSTYSLSSTLTLSKADYEKHKVYACEVTHQGLSSPVTKSFNRGEC
notes: structure 1 isotype control; CH2 WT
B6: M1IC-G2-1 (bispecific antibody, human IgG1, kappa)
chain: B1 chain with R250G, R252G
heavy: EVKLDETGGGLVQPGRPMKLSCVASGFTFSDYWMNWVRQSPEKGLEWVAQIRNKPYNYETYYSDSVKGRFTISRDDSKSSVYLQMNNLRVEDMGIYYCTGSYYGMDYWGQGTSVTVSSASTKGPSVFPLAPSSKSTSGGTAALGCLVKDYFPEPVTVSWNSGALTSGVHTFPAVLQSSGLYSLSSVVTVPSSSLGTQTYICNVNHKPSNTKVDKKVEPKSCDKTHTCPPCPAPPVAGPSVFLFPPKPKDTLMISRTPEVTCVVVDVSHEDPEVQFNWYVDGVEVHNAKTKPREEQFNSTFRVVSVLTVVHQDWLNGKEYKCKVSNKGLPAPIEKTISKTKGQPREPQVYTLPPCRDELTKNQVSLWCLVKGFYPSDIAVEWESNGQPENNYKTTPPVLDSDGSFFLYSKLTVDKSRWQQGNVFSCSVMHEALHNHYTQKSLSLSPGK
light: B5 light
notes: structure 1 isotype control; CH2 G2CH2
B7: M1IC-DG2D-1 (bispecific antibody, human IgG1, kappa)
chain: B1 chain with R250G, R252G, D298A, D303A
heavy: B6 heavy with D265A, D270A
light: B5 light
notes: structure 1 isotype control; CH2 DG2DCH2
B8: M1IC-AG2-1 (bispecific antibody, human IgG1, kappa)
chain: B1 chain with R250G, R252G, C263A
heavy: B6 heavy with C230A
light: B5 light
notes: structure 1 isotype control; CH2 AG2CH2
B9: M1IC-GG2-1 (bispecific antibody, human IgG1, kappa)
chain: B1 chain with R250G, R252G, C263G
heavy: B6 heavy with C230G
light: B5 light
notes: structure 1 isotype control; CH2 GG2CH2
B10: M1IC-FES-1 (bispecific antibody, human IgG1, kappa)
chain: B3 chain with R250G, R252G
heavy: EVKLDETGGGLVQPGRPMKLSCVASGFTFSDYWMNWVRQSPEKGLEWVAQIRNKPYNYETYYSDSVKGRFTISRDDSKSSVYLQMNNLRVEDMGIYYCTGSYYGMDYWGQGTSVTVSSASTKGPSVFPLAPSSKSTSGGTAALGCLVKDYFPEPVTVSWNSGALTSGVHTFPAVLQSSGLYSLSSVVTVPSSSLGTQTYICNVNHKPSNTKVDKKVEPKSCDKTHTCPPCPAPEFEGGPSVFLFPPKPKDTLMISRTPEVTCVVVDVSHEDPEVKFNWYVDGVEVHNAKTKPREEQYNSTYRVVSVLTVLHQDWLNGKEYKCKVSNKALPASIEKTISKAKGQPREPQVYTLPPCRDELTKNQVSLWCLVKGFYPSDIAVEWESNGQPENNYKTTPPVLDSDGSFFLYSKLTVDKSRWQQGNVFSCSVMHEALHNHYTQKSLSLSPGK
light: B5 light
notes: structure 1 isotype control; CH2 FES; also called MlIC-FES-1
B11: M1IC-AAG-1 (bispecific antibody, human IgG1, kappa, L234A L235A)
chain: B3 chain with R250G, R252G, F268A, E269A, P363G, S365P
heavy: not shown
light: B5 light
notes: structure 1 isotype control; CH2 AAG
B12: M1IC-PG2-1 (bispecific antibody, human IgG1, kappa)
chain: B1 chain with R250G, R252G, C263P
heavy: B6 heavy with C230P
light: B5 light
notes: structure 1 isotype control; CH2 PG2CH2
B13: M1IC-NQ (bispecific antibody, human IgG1, kappa, N297Q)
chain: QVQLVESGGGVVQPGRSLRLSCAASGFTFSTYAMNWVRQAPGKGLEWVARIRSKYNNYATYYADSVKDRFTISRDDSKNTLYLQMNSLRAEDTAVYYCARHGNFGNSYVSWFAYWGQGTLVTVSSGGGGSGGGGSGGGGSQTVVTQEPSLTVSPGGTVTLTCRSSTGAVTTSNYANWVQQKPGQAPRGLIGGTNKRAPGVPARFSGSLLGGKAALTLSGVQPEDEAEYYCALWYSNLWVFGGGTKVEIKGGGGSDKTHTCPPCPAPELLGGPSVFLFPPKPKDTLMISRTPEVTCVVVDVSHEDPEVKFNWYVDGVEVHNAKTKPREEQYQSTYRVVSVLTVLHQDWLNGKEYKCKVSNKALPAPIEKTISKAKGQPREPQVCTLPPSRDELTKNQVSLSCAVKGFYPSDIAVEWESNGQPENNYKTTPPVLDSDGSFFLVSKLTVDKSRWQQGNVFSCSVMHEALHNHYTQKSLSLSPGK
heavy: B10 heavy with F235L, E236L, N298Q, S332P
light: B5 light
notes: structure 1 isotype control; CH2 N297Q
B14: M1IC-SG2-1 (bispecific antibody, human IgG1, kappa)
chain: B1 chain with R250G, R252G, C263S
heavy: B6 heavy with C230S
light: B5 light
notes: structure 1 isotype control; CH2 SG2CH2
B15: M1IC-G2D-1 (bispecific antibody, human IgG1, kappa)
chain: B1 chain with R250G, R252G, D303A
heavy: B6 heavy with D270A
light: B5 light
notes: structure 1 isotype control; CH2 G2DCH2
B16: M1IC-DG2-1 (bispecific antibody, human IgG1, kappa)
chain: B1 chain with R250G, R252G, D298A
heavy: B6 heavy with D265A
light: B5 light
notes: structure 1 isotype control; CH2 DG2CH2; also called MlIC-DG2-1

Biological target: T1, Human CD3ε (human, UniProt P07766 23-126)
T1 construct: CD3 on T cells isolated from human whole blood
Assay: flow cytometry, human T cells
Description: 1) Cell preparation: T cells isolated from CD3-positive human whole blood were used for a CD3 end affinity detection of multifunctional antibody molecule; positive tumor cells of corresponding antigen were used for detecting affinity of tumor antigen; for example, CD38-positive MM. 1S cells (purchased from the Cell Resource Center of Shanghai Institutes for Biological Sciences, Chinese Academy of Sciences) or RPMI 8226 cells (purchased from the Cell Resource Center of Shanghai Institutes for Biological Sciences, Chinese Academy of Sciences) were used for CD38 antigen detection, and PD-L1 positive H358 cells (purchased from the Cell Resource Center of Shanghai Institutes for Biological Sciences, Chinese Academy of Sciences) were used for PD-L1 antigen detection, and so on. The cells were resuspended with 1% FBS-PBS, adjusted to a density of 4×10⁶/ml, and 50 μl of cells were taken from each well, and then plated at 2×10⁵ per well. Cell plating was operated on ice
2) Addition of the antibody: according to the experimental design, the antibody was diluted gradually, and dilution of antibody was operated on ice. For example, the initial concentration of antibody for dilution was 3000 nM, and the antibody was diluted by 3 times with 11 concentration gradients. The diluted antibody was added to a cell well at 50 μl per well, mixed well, and shaked and incubated at 4° C. 1100 rpm/min for 2 h; after washing, the cells were resuspend in 1% FBS-PBS, and a diluted secondary antibody PE anti-human IgG FC (Biolegend, 409304) was added with a final concentration of 8 ug/ml and a volume of 50 μl/well. At the same time, a well only added with cells and secondary antibody was set as a control, the components were mixed well, and incubated under shaking at 1100 rpm/min at 4° C. for 1 h;
5) Data analysis: the data was analyzed by a flow analysis software FlowJo 7.6 thereby obtaining an average fluorescence intensity of the specific antibody concentration, plotted by a Graphpad Prism 5 with the antibody concentration (nM) as an abscissa and the average fluorescence intensity as an ordinate; the EC50 value was calculated by the method of One site—Specific binding, and the EC50 value indicated the cell affinity of the antibody to the corresponding target antigen.

Binder | EC50 [nM]
B1 | 191
B2 | 177
B3 | 200
B4 | 153
B5 | 153
B6 | 127
B7 | 128
B8 | 163
B9 | 168
B10 | 170
B11 | 152
B12 | 116
B13 | 194
B14 | 122
B15 | 101
B16 | 120

Biological target: T2, Monkey CD3 (monkey)
T2 construct: whole, on cells; also called CD3 of monkey CD3 positive T cells
Assay: flow cytometry, monkey T cells

Binder | EC50 [nM]
B1 | 239
B2 | 194
B3 | 207
B4 | 196
B5 | 174
B6 | 165
B7 | 181
B8 | 197
B9 | 166
B10 | 295
B11 | 205
B12 | 146
B13 | 378
B14 | 222
B15 | 143
B16 | 130
